# In patent US20190390248:
# Read-outs that look alike come from different tables or passages of the source.
# Target: human prothrombin, P00734
# [1] = scale: nmol thrombin/mL/min/µmol prothrombin/µmol activator
Protein,N-terminal sequencing of SDS-PAGE bands,percent of S-2238 hydrolysed by the thrombin formed,Thrombin generation rate [1],Thrombin generation rate,fold more effective than carinactivase-1 (activation rate constants),fold more effective than carinactivase-2 (activation rate constants),fold more effective than ecarin (activation rate constants),fold more effective than notecarin (activation rate constants)
notecarin from Notechis scutatus venom (protein) SNSLFEEIRPGNIERECIEEKCSKEEAREVFEDNEKTETFWNVYVDGDQCSSNPCHYRGTCKDGIGSYTCTCLPNYEGKNCEKVLFKSCRAFNGNCWHFCKRVQSETQCSCAESYLLGVDGHSCVAEGDFSCGRNIKARNKREASLPDFVQSQKATVLKKSDNPSPDIRIVNGMDCKLGECPWQAVLINEKGEVFCGGTILSPIHVLTAAHCINQTKSVSVIVGEIDISRKETRRLLSVDKIYVHKKFVPPNSYYQNIDRFAYDYDIAIIRMKTPIQFSENVVPACLPTADFAKEVLMKQDSGIVSGFGRTQSIGYTSNILKVITVPYVDRHTCMLSSNFRITQNMFCAGYDTLPQDACQGDSGGPHITAYGDTHFVTGIISWGEGCARKGKYGVYTKVSNFIPWIKKIMSLK,confirmed conversion of prothrombin to alpha-thrombin by PtPA and notecarin,then carinactivase-1 and lastly notecarin (<1%) being the least efficient,0.043,–,–,–,–,–
ecarin from Echis carinatus venom (protein) IILGSGNVNDYEVVYPQKVTALPKGAVQQPEQKYEDAMQYEFEVKGEPVVHLEKNKELFSEDYSETHYSSDDREITTNPSVEDHCYYHGRIQNDAESTASISACNGLKGHFKLRGETYFIEPLKIPDSEHAVYKYENIENEDEAPKMCGVTQDNWESDEPIKKTLGLIVPPHERKFEKKFIELVVVVDHSMVTKYNNDSTAIRTWIYELNTVNEIYLPFNIRVALVGLEFWCNGDLINVTSTADDTLHSFGEWRASDLLNRKRHDHAQLLTNVTLDHSTLGITFVYGCKSDRSVELILDYSNITFNMAYIIAHEMGHSLGMLHDTKFCTCGAKPCIMFGKESIPPPKEFSSCSYDQYNKYLLKYNPCILDPPLRKDIASPAVCGNEIWEEGEECDCGSPADCRNPCCDAATCKLKPGAECGNGECCDKCKIRKAGTECRPARDDCVAEHCTGQSAECPRNEFQRNGQPCLNNSGYCYNGDCPIMLNQCIALFSPSATVAQDSCFQRNLQGSYYGYCTKEIGYYGRFPCAPQDVKCGRLYCLDNSFKKNMRCKNDYSYADENKGIVEPGTKCEDGKVCINRKCVDVNTAY,–,–,–,2.76,–,–,–,–
OsPA (prothrombin activator purified from Oxyuranus scutellatus venom) (protein) chain 1: AQLREYRLAAQLEDWDYNPQPEELSRLSESDLTFKKIVYREYELDFKQEKPRDELSGLLGPTLRGEVGDSLIIYFKNFATQPVSIHPQSAVYNKWSEGSSYSDGTSDVERLDDAVPPGQSFKYVWNITAEIGPKKADPPCLTYAYYSHVNMVRDFNSGLIGALLICKEGSLNADGAQKFFNREYVLMFSVFDESKNWYRKPSLQYTINGFANGTLPDVQACAYDHISWHLIGMSSSPEIFSVHFNGQTLEQNHYKVSTINLVGGASVTANMSVSRTGKWLISSLVAKHLQAGMYGYLNIKDCGNPDTLTRKLSFRERRRIMKWEYFIAAEEITWDYAPEIPSSVDRRYKAQYLDNFSNFIGKKYKKAVFRQYEDSNFTKPTYAIWPKERGILGPVIKAKVRDTVTIVFKNLASRPYSIYVHGVSVSKDAEGAVYPSDPKENITHGKAVEPGQVYTYKWTVLDTDEPTVKDSECITKLYHSAVDMTRDIASGLIGPPLVCKRKALSIRGVQNKADVEQHAVFAVFDENKSWYLEDNIKKYCSNPSSVKKDDPKFYKSNVMYTLNGYASDRTEVWGFHQSEVVEWHLTSVGTVDEIVPVHLSGHTFLSKGKHQDILNLFPMSGESATVTMDNLGTWLLSSWGSCEMSNGMRLRFLDANYDDEDEGNEEEEEDDGDIFADIFNPPEVVIKKEEVPVNFVPDPESDALAKELGLFDDEDNPKQSRSEQTEDDEEQLMIASMLGLRSFKGSVAEEELKHTALALEEDAHASDPRIDSNSAHNSDDIAGRYLRTINRRNKRRYYIAAEEVLWDYSPIGKSQVRSLPAKTTFKKAIFRSYLDDTFQTPSTGGEYEKHLGILGPIIRAEVDDVIEVQFRNLASRPYSLHAHGLLYEKSSEGRSYDDNSPELFKKDDAIMPNGTYTYVWQVPPRSGPTDNTEKCKSWAYYSGVNPEKDIHSGLIGPILICQKGMIDKYNRTIDIREFVLFFMVFDEEKSWYFPKSDKSTCEEKLIGVQSRHTFPAINGIPYQLQGLMMYKDENVHWHLLNMGGPKDVHVVNFHGQTFTEEGREDNQLGVLPLLPGTFASIKMKPSKIGTWLLETEVGENQERGMQALFTVIDKDCKLPMGLASGIIQDSQISASGHVGYWEPKLARLNNTGMFNAWSIIKKEHEHPWIQIDLQRQVVITGIQTQGTVQLLKHSYTVEYFVTYSKDGQNWITFKGRHSKTQMHFEGNSDGTTVKENHIDPPIIARYIRLHPTKFYNTPTFRIELLGCEVEGCSVPLGMESGAIKDSEITASSYKKTWWSSWEPFLARLNLKGRTNAWQPKVNNKDQWLQIDLQHLTKITSIITQGATSMTTSMYVKTFSIHYTDDNSTWKPYLDVRTSMEKVFTGNINSDGHVKHFFNPPILSRFIRIIPKTWNQYIALRIELFGCEVF chain 2: ANSLYEEFRSGNIERECIEERCSKEEAREVFEDDEKTETFWNVYVDGDQCSSNPCHYRGTCKDGIGSYTCTCLSGYEGKNCERVLYKSCRVDNGNCWHFCKPVQNDIQCSCAEGYLLGEDGHSCVAGGNFSCGRNIKTRNKREASLPDFVQSQNAILLKKSDNPSPDIRIVNGMDCKLGECPWQAVLVDEKEDAFCGGTILSPIYVLTAAHCINQTKMISVVVGEINISRKNPGRLLSVDKIYVHQKFVPPKKGYEFYEKFDLVSYDYDIAILQMKTPIQFSENVVPACLPTADFANQVLMKQDFGIVSGFGRIFEKGPQSKTLKVLKVPYVDRHTCMLSSESPITPTMFCAGYDTLPRDACQGDSGGPHITAYRDTHFITGIVSWGEGCAQTGKYGVYTKVSKFILWIKRIMRQKLPSTESSTGRL,–,–,44,–,more than 200 times then carinactivase-1,more than 20 times more effective than ecarin and carinactivase-2,more than 20 times more effective than ecarin and carinactivase-2,approximately 1000 times more effective than notecarin
